Assay [1] addresses HBc protein (core protein) of hepatitis B virus genotype D (hepatitis B virus genotype D). Nature of the assay: SEC; VLPs incubated in GuHCl- and LiCl-containing dissociation buffer, +4 °C, 16 h; debris removed; supernatant on a Superose6 or Superdex200 column in dissociation buffer; capsid to dimers, the dimer stays. For orientation: SEC sorts molecules by how far they enter the pores of the column.

The target is the same in assay [2]. The assay can be described thus: reassociation by dialysis, tested by electron microscopy, DLS, SDS-PAGE and NAGE; purified HBc dimers dialysed from dissociation buffer against PBS at +4 °C overnight; dimers to VLPs (empty capsids).
The target of assay [3] is HBc protein (core protein) of hepatitis B virus genotype F (hepatitis B virus genotype F). Nature of the assay: SEC; VLPs incubated in GuHCl- and LiCl-containing dissociation buffer, +4 °C, 16 h; debris removed; supernatant on a Superose6 or Superdex200 column in dissociation buffer; capsid to dimers, the dimer stays.
Assay [4] has the same target. Nature of the assay: reassociation by dialysis, tested by electron microscopy, DLS, SDS-PAGE and NAGE; purified HBc dimers dialysed from dissociation buffer against PBS at +4 °C overnight; dimers to VLPs (empty capsids).
In assay [5] the target is HBc protein (core protein) of hepatitis B virus genotype G (hepatitis B virus genotype G). Nature of the assay: SEC; VLPs incubated in GuHCl- and LiCl-containing dissociation buffer, +4 °C, 16 h; debris removed; supernatant on a Superose6 or Superdex200 column in dissociation buffer; capsid to dimers, the dimer stays.
Assay [6] shares this target. The assay can be described thus: reassociation by dialysis, tested by electron microscopy, DLS, SDS-PAGE and NAGE; purified HBc dimers dialysed from dissociation buffer against PBS at +4 °C overnight; dimers to VLPs (empty capsids).

“HBc protein (core protein) of hepatitis B virus genotype D (natural protein)”: in assay [1], the Dimer content is 30%, the percent of the treated soluble VLPs as dimers came to 70% and the stoichiometry N came out at 2. In assay [2], the Reassociated dimers (percent of dimers reassociated in VLPs) was found to be 80%.
In assay [3], “HBc protein (core protein) of hepatitis B virus genotype F (natural protein)” displayed a Dimer content of 30%, a percent of the treated soluble VLPs as dimers of 40% and a stoichiometry N of 2. In assay [4], this substance showed a Reassociated dimers (percent of dimers reassociated in VLPs) of 80%.
In assay [5], “HBc protein (core protein) of hepatitis B virus genotype G (natural protein)” returned a Dimer content of 30%, a percent of the treated soluble VLPs as dimers of 80% and a stoichiometry N of 2. The substance also gave a Reassociated dimers (percent of dimers reassociated in VLPs) in assay [6] of 90%.

What is called stoichiometry N is the number of molecules, sites or subunits per partner or assembly.

(Values after publication PMC7912224.)
